Assay results: US20260258115A1 (MAPP BIOPHARMACEUTICAL, published 2026)

B1: ADI-14403 (antibody, V domains shown)
VH: QVQLVESGGGLGKPGGSLRLSCAASGFTFSGYYMSWIRQAPGKGLEWVSDISSGSSFTNYADSVKGRFTISRDNAKNSLYLQMNSLKAEDTAVYYCARVPPDSYGSGSYSGDSWGQGTLVTVSS
VL: QSVVTQPPSVSGAPGQRVTISCTGSSSNIGAGYGVHWYQQLPGTAPKLLIYGNTNRPSGVPDRISGSKSGTSASLVITGLQAEDEADYYCQSYDSSLSGWVFGGGTKLTVL
notes: also called Ab 69
B2: ADI-14412 (antibody, V domains shown)
VH: QVQLVQSGAEVKKPGASVKVSCKASGYTFTRYGISWVRQAPGQGLEWMGWISDYNGNTKNAEKFQGRVTMTTDTYTNIAYMELRSLRSDDTAVYYCARDWWITVGGIIAPFDYWGQGTLVTVSS
VL: ETTLTQSPGTLSLSPGERATLSCRASQSVSSDYLAWFQQKPGQAPRLLIYGASSRATDIPDRFSGSGSGTDFTLTISRLESEDFAVYYCLHYAGARTFGQGTKVEIK
notes: also called Ab 78
B3: ADI-14424 (antibody, V domains shown)
VH: QVQLVQSGAEVKKPGESLKISCKGPDSSFSVYWIAWVRQMPGKGLEWMGVIYVGDSDTRYSPSFRGQVTISADKSMNTAYLQWSSLKASDTAMYFCARHIPPGPFDLWGQGTMVTVSS
VL: NFMLTQPHSVSASPGKTITISCTRSSGSIASNSVQWYQQRPGSAPTNVIYEDDQRPLGVPNRFSGSIDSSSNSASLTISGLKTEDEADYYCHSYHNSDQVFGGGTKLTVL
notes: also called Ab 90
B4: ADI-14582 (antibody, V domains shown)
VH: QVQLVQSGAEVKKPGESLKISCKGPDSSFSVYWIAWVRQMPGKGLEWMGVIYVGDSDTRYSPSFRGQVTISADKSINTAYLQWSSLKASDTAMYFCARHIPPGPFDLWGQGTTVTVSS
VL: NFMLTQPHSVSASPGKTITISCTRSSGSIASNSVQWYQQRPGSAPTNVIYEDNQRPLGVPNRFSGSIDSSSNSASLTISGLKTEDEADYYCQSYHSSDQVFGGGTKVTVL
B5: ADI-14428 (antibody, V domains shown)
VH: EVQLLESGGGLVKPGGSLRLSCAASGFTFSDHYMSWIRQAPGKGLEWVSYISSTSSFTNYADSLKGRFTISRDNAKNSLYLQMNSLRAEDTAVYYCARPYIVALGTRAFDIWGQGTTVTVSS
VL: SYVLTQPPSVSVAPGKTARITCGGNNIGSKTVHWYQQKPGQAPVLVSYYDSDRPSGIPERFSGSNSGNTATLTISRVEAGDEADYYCQVWDGSSEHYVFGTGTKVTVL
notes: also called Ab 94
B6: ADI-14580 (antibody, V domains shown)
VH: QVQLVQSGAEVKKPGSSVKVSCKASGGTFSSYTINWVRQAPGQGLEWMGRIIPVLGMASYVQNFQGRVSITADESTSTAYMELSSLTSEDTALYYCAKGAVAAANDVFDVWGQGTTVTVSS
VL: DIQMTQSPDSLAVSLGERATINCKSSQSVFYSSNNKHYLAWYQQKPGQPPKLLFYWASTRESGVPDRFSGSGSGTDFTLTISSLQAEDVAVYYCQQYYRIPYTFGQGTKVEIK
B7: ADI-14581 (antibody, V domains shown)
VH: QVQLVQSGAEVKKPGSSVKVSCKASGGTFSSHAFSWVRQAPGQGLEWMGGIIPSLNTANYAQKFQGRVSITADESTGTAYMELSSLRSDDTAVYFCAREVFGYGYYFDYWGQGTLVTVSS
VL: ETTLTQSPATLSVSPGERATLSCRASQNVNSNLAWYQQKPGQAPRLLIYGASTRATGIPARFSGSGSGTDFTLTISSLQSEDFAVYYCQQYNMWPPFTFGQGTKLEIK
notes: also called Ab 110
B8: ADI-14583 (antibody, V domains shown)
VH: QVQLVQSGAEVKEPGASVKVSCKASGYTFTNYGISWVRQAPGQGLEWLGWISAYNGNIHYAQKVQGRVTMTTDTSTSTGFMELRSLRSDDTAVYYCAREPPVIAAGDFQHWGQGTLVTVSS
VL: ETTLTQSPLSLPVTLGQPASISCRSSQSLVHSNGNTYLSWFQQRPGQSPRRLIYRVSNRDSGVPDRFSGSGSGTDFTLKISRVEAEDVGLYYCMQGTHWPPDFGQGTRLEIK
B9: ADI-14586 (antibody, V domains shown)
VH: QVQLVQSGGGLVKPGGSLRLSCAASGFTFSDYYMSWIRQAPGKGLEWVSYISSSSSYTNYADSVKGRFTISRDNAKNSLYLQMNSLRAEDTAVYYCAKRTEYCSSTGCAYYFDYWGQGTLVTVSS
VL: QSVVTQPPSVSGAPGQRVTISCTGSSSNIGAGYDVHWYQQLPGTAPKLLIYGNSNRPSGVPDRFSGSKSGTSASLAITGLQAEDEADYYCQSYDSSLSGSVFGGGTKVTVL
B10: ADI-14587 (antibody, V domains shown)
VH: EVQLLESGGGLVKPGGSLRLSCAASGFTLTSYSMNWVRQAPGKGLEWVSSISSSSSYIHYADSVKGRFTISRDNAKNSLYLQMNSLRAEDTAVYYCAGSSLYPPFFDYWGQGTLVTVSS
VL: QSVVTQPPSVSGAPGQRVTISCTGSSSNLGAGYDVHWYQQLPGTAPKLLIYGNNNRPSGVPDRFSGSKSGTSASLAITGLQAEDEADYYCQSYDSSLSSVVFGGGTKLTVL
B11: ADI-14588 (antibody, V domains shown)
VH: QVQLVQSGAEVKKPGASVKVSCKVSGDTLTELSIHWVRQAPGKGHEWMGYFDHEDGEIMYAQKFQGRVTMTGDTSTDTAYMELSSLRSEDTAVYYCATVAAAGQFDYWGQGTLVTVSS
VL: DIQLTQSPSSLSASVGDRVTITCRARQSISTYLNWYQQKPGKAPKLLIYAASSLQSGVPSRFSGSGSGTDFTLTISSLQPEDFATYYCQQSYSSPYTFGQGTKVDIK
B12: ADI-14591 (antibody, V domains shown)
VH: QVQLVQSGAEVKKPGESLRISCTGSGYTFTNYWISWVRQMPGKGLEWMGRIDPTDSYTNYSPSFQGHVTISADKSISTAYLQSSSLKASDTATYYCARHRRLVPAAMSRGYYGMDVWGQGTTVTVSS
VL: EIVMTQSPSSLSASVGDRATITCRASQSISSYLNWYQQKPGKAPKLLIYAASNLQSGAPSRFSGSGSGTDFTLTISSLQPEDFATYFCQQTYSTPYTFGQGTKVEIK
notes: also called Ab 120
B13: ADI-14601 (antibody, V domains shown)
VH: EVQLLESGGGLVQPGGSLRLSCAASGFTFSSYAMNWVRQAPGKGLEWVSTISGSGSSTYYADSVEGRFTISRDNSKNTLYLQMNSLRAEDTAIYYCAKEPRDMYIQQWLDSWGQGTLVTVSS
VL: GIRLTQSPSSVSASVGDRVIITCRASQGIRSWLAWYQQKPGKAPKLLIYAASRLQSGVPSRFSGSGSETDFTLTISSLQPEDFASYYCQQANSFPLTFGGGTKVEIK
B14: ADI-14603 (antibody, V domains shown)
VH: QVQLVQSGAEVKKPGESLKISCKGSGYTFTNYWIGWVRQMPGKGLEWMGIIYPGDSDTRYSPSFQGQVTISADKSITTAYLQWRVLKASDTAMYYCATMRGSSSHFHHWGQGTLVTVSS
VL: DIQVTQSPSSLSASVGDRVTITCRAGQGIGNYLAWYQQKPGKVPKVLIYAASTLQSGVPSRFSGSGSGTEFTLTISSLQPEDVATYYCQKYNNAPYAFGQGTRLEIK
notes: also called Ab 131
B15: ADI-20966 (antibody, V domains shown)
VH: EVQLLESGGGLGKPGGSLRLSCAASGFKLSSYYMHWVRQAPGKGPEWVSSISASSSYINYADSVRGRFTVSRDNAKNSLFLQMNSLRVDDTAIYYCARGAPLTNFGMVLDSWGQGTLVTVSS
VL: QSVLTQPPSVSGAPGQRVTISCTGSGSNIGAGYDVHWYQQVPGRVPKLLIYANNNRPSGVPDRFSGSKSGTSASLAITGLQADDEADYYCQSYDRSLNVVFGGGTKLTVL
B16: ADI-20978 (antibody, V domains shown)
VH: EVQLVESGAEVKKPGASVKVSCKASGYTFGNYGISWVRQAPGQGLEWMGWISAYNGNSNYAQKFQGRVTMTTDTSASTAYMEVRSLRSDDTAVYYCARDVPVTAARLLDYWGQGTLVTVSS
VL: DIVLTQTPLSLPVTLGQPASISCRSSQSLVYSDGNTYLSWFQQRPGQSPRRLIYKVSNRDSGVPDRFSGSGSGTDFTLKISRVEAEDVGVYYCMQATDWLGYTFGQGTKLEIK
B17: ADI-20980 (antibody, V domains shown)
VH: QVQLQESGPGLVKPSQTLSLTCSVSGGSVSSGDYYWTWIRQPAGKGLEWIGRIYNSGGTDYSPSLKSRVTISVDTSKNQFSLKLSSVTAADTAVYYCARGRGYYESPWGQGTLVTVSS
VL: EIVLTQSPATLSLSPGERATLSCRASQSVGIYIGWYQQKPGQAPRLLMYDASNRATGIPDRFSGSGSGTDFSLTISSLEPEDFAVYYCQLRSKWLTFGPGTKVEIK
B18: ADI-20984 (antibody, V domains shown)
VH: EVQLLETGAEVKKPGASVKVSCHVSGYGLTDLSMHWVRQAPGKRLQWMGSFDPQYGETIDTQNFQGRVTMTVDTSTATLYMQLSGLRSEDTAMYYCATPQSTGALDNWGQGTLVTVSS
VL: DIRVTQSPSSLSASVGDRVTITCRASQSISSYLSWYQQKPGKAPRLVIFAASNLQSGVPSRFSGTGSSRFSDSGSWTDFTLTISSLQPEDFAIYYCQQTYITPFTFGQGTKVDIK
B19: ADI-20987 (antibody, V domains shown)
VH: QVQLVQSGGGVVHPGRSLRLSCAASGFSFSDYGMHWVRQAPGKGLEWVAVIWYDGINKYYADSVKGRFAISRDNSKNTLYLQMNSLRAGDTAVYYCARGGIAAAQRYFDYWGQGTLVTVSS
VL: ETTLTQSPGTLSLSPGERATLSCRASQTVSSSNLAWYQQKPGQAPRLLIYGASSRATGIPDRFSGSGSGTDFTLTISRLEPEDFAVYYCQQSGTSFGQGTKVDIK
B20: ADI-20998 (antibody, V domains shown)
VH: QVQLVQSGGGVVQPGRSLRLSCAASGFTLSTYGMHWVRQAPGKGLEWVAVIYYDESNKFYADSVQGRFTISRDDSKNTLFLQMNSLRAEDTAVYYCARESRPRGYSYSDFDSWGQGTLVTVSS
VL: QPGLTQPRSVSGSPGQSVTISCTGTSSDVGTFNYVSWYQQHPGKAPKLMIYDVNQRPSGVPDRFSGSKSGNTASLTISGLQAEDEADYYCCAYAGYYSFGGGTKLTVL
B21: ADI-21005 (antibody, V domains shown)
VH: EVQLVESGGAVVQPGGSLRLSCVASGLAFDEYTMHWVRQSSAKGLEWISLISWNGGITYYADSVKGRFTISRDNSKNSLYLQMNSLRTEDTATYFCARLGYGSGSDYGDDYWGQGTLVTVSS
VL: ETTLTQSPGTLSLSPGERATLSCRASQSVSNNYLAWYQQKPGQAPRLLIHGASTRVTGIPARFSGSGSGTDFTLTISRLEPEDFAVYYCHQYHSSPRTFGQGTKVDIK
B22: ADI-21013 (antibody, V domains shown)
VH: QVQLQESGPGVVKPSETLSLTCTVSGGSISNTHSYWGWIRQSPGKGLEWIGSIYYTGSTYYNPSFRSRVTLSVDTSKNQFSLKLSSVTAADTAVYYCAAPDYFVLTDYKSTFDYWGRGALVTVSS
VL: DIVMTQSPGTLSLSPGGRATLSCRASQSVGSSSLAWYQQKPGQAPRLLIYGASSRAAGIPDRFSGSGSGTDFTLTINRLEPEDFAMYYCQQYGSSPLTFGGGTKVEIK
B23: ADI-21015 (antibody, V domains shown)
VH: QVQLVQSGAEVKKPGASVRVSCKVPGNTLSDLSMHWVRHTPGEGLEWMGSFDPEYGETIPAQRFQGRVTMTEDTSTDTAYMELTSLRFEDTAVYYCAAPHASGALQHWGQGTLVTVSS
VL: DIVMTQSPSSLSASVGDRVTITCRASQIISAYLNWYQQKAGKAPKLLIYAASSLQSGVPSRFSGSGSGTDFTLTISSLQPEDFATYYCQQTYITPFTFGQGTKLEIK

Each binder was assayed against RSV prefusion F (preF), subtype B (respiratory syncytial virus, subtype B) (assay: BLI, IgG).
B1 was tested, and the Kd was 0.699 nM.
For B2, the Kd was 13.4 nM.
B3 showed a Kd of 1.9 nM.
Work on B4 yielded a Kd of 1.81 nM.
B5 showed a Kd of 14.1 nM.
B6 was tested, and the Kd was 4.54 nM.
For B7, the Kd was 2.88 nM.
Work on B8 yielded a Kd of 1.59 nM.
B9 showed a Kd of 6.7 nM.
B10 was tested, and the Kd was 0.833 nM.
B11 was tested, and the Kd was 1.48 nM.
For B12, the Kd was 0.554 nM.
B13 was tested, and the Kd was 1.96 nM.
B14 was tested, and the Kd was 30.5 nM.
B15 showed a Kd of 0.862 nM.
Work on B16 yielded a Kd of 0.319 nM.
B17 showed a Kd of 0.542 nM.
B18 was tested, and the Kd was 20.2 nM.
Work on B19 yielded a Kd of 35.6 nM.
Binder B20 has a Kd of 1.35 nM.
B21 gave a Kd of 7.7 nM.
B22 showed a Kd of 1.79 nM.
Binder B23 has a Kd of 32.4 nM.
